# ± gives the uncertainty stated by the source.
# B1: library; numbered along this chain (parent)
# chain: MEVVDPQQLGMFTEGELMSVGMDTFIHRIDSTEVIYQPRRKRAKLIGKYLMGDLLGEGSYGKVKEVLDSETLCRRAVKILKKKKLRRIPNGEANVKKEIQLLRRLRHKNVIQLVDVLYNEEKQKMYMVMEYCVCGMQEMLDSVPEKRFPVCQAHGYFCQLIDGLEYLHSQGIVHKDIKPGNLLLTTGGTLKISDLGVAEALHPFAADDTCRTSQGSPAFQPPEIANGLDTFSGFKVDIWSAGVTLYNITTGLYPFEGDNIYKLFENIGKGSYAIPGDCGPPLSDLLKGMLEYEPAKRFSIRQIRQHSWFRKKHPPAEAPVPIPPSPDTKDRWRSMTVVPYLEDLHGADEDEDLFDIEDDIIYTQDFTVPGQVPEEEASHNGQRRGLPKAVCMNGTEAAQLSTKSRAEGRAPNPARKACSASSKIRRLSACKQQ
# Variants of: B1
# Assay: STK11 functional score (HeLa growth suppression), rescaled enrichment; synonymous median = 1, nonsense median = 0 (normalised score)
# Settings: with HeLa; variant type: missense
# Procedure, shortened: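 The functional score takes the post/pre-selection log ratio, corrects it to wild type, rescales it to synonymous and nonsense medians, and merges it over codons and replicate transfections, with error from bootstrapping. Counts came from tiled gDNA amplicons sequenced on NextSeq (~2 million reads per tile). The libraries were POPCode codon-randomised, codon-optimised STK11 integrated by Bxb1 at an AAVS1 landing pad in HeLa, three regions with three transfections each.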
row,Variant,STK11 functional score
1,MEVVDPQQLGMFTEGELMSVGMDTFIHRIDSTEVIYQPRRKRAKLIGKYLMGDLLGEGSYGKVKEVLDSETLCRRAVKILKKKKLRRIPNGEANVKKEIQLLRRLRHKNVIQLVDVLYNEEKQKMYMVMEYCVCGMQEMLDSVPEKRFPVCQAHGYFCQLIDGLEYLHSQGIVTKDIKPGNLLLTTGGTLKISDLGVAEALHPFAADDTCRTSQGSPAFQPPEIANGLDTFSGFKVDIWSAGVTLYNITTGLYPFEGDNIYKLFENIGKGSYAIPGDCGPPLSDLLKGMLEYEPAKRFSIRQIRQHSWFRKKHPPAEAPVPIPPSPDTKDRWRSMTVVPYLEDLHGADEDEDLFDIEDDIIYTQDFTVPGQVPEEEASHNGQRRGLPKAVCMNGTEAAQLSTKSRAEGRAPNPARKACSASSKIRRLSACKQQ [H174T],1.63 ± 0.19
2,MEVVDPQQLGMFTEGELMSVGMDTFIHRIDSTEVIYQPRHKRAKLIGKYLMGDLLGEGSYGKVKEVLDSETLCRRAVKILKKKKLRRIPNGEANVKKEIQLLRRLRHKNVIQLVDVLYNEEKQKMYMVMEYCVCGMQEMLDSVPEKRFPVCQAHGYFCQLIDGLEYLHSQGIVHKDIKPGNLLLTTGGTLKISDLGVAEALHPFAADDTCRTSQGSPAFQPPEIANGLDTFSGFKVDIWSAGVTLYNITTGLYPFEGDNIYKLFENIGKGSYAIPGDCGPPLSDLLKGMLEYEPAKRFSIRQIRQHSWFRKKHPPAEAPVPIPPSPDTKDRWRSMTVVPYLEDLHGADEDEDLFDIEDDIIYTQDFTVPGQVPEEEASHNGQRRGLPKAVCMNGTEAAQLSTKSRAEGRAPNPARKACSASSKIRRLSACKQQ [R40H],1.09 ± 0.64
3,MEVVDPQQLGMFTEGELMSVGMDTFIHRIDSTEVIYQPRRKRAKLIGKYLMGDLLGEGSYGKVKEVLDSETLCSRAVKILKKKKLRRIPNGEANVKKEIQLLRRLRHKNVIQLVDVLYNEEKQKMYMVMEYCVCGMQEMLDSVPEKRFPVCQAHGYFCQLIDGLEYLHSQGIVHKDIKPGNLLLTTGGTLKISDLGVAEALHPFAADDTCRTSQGSPAFQPPEIANGLDTFSGFKVDIWSAGVTLYNITTGLYPFEGDNIYKLFENIGKGSYAIPGDCGPPLSDLLKGMLEYEPAKRFSIRQIRQHSWFRKKHPPAEAPVPIPPSPDTKDRWRSMTVVPYLEDLHGADEDEDLFDIEDDIIYTQDFTVPGQVPEEEASHNGQRRGLPKAVCMNGTEAAQLSTKSRAEGRAPNPARKACSASSKIRRLSACKQQ [R74S],0.519 ± 0.21
4,MEVVDPQQLGMFTEGELMSVGMDTFIHRIDSTEVIYQPRRKRAKLIGKYLMGDLLGEGSYGKVKEVLDSETLCRRAVKILKKKKLRRIPNGEANVKKEIQLLRRLRHKNVIQLVDVLYNEEKQKMYMVMEYCVCGMQEMLDSVPEKRFPVCQAHGYFCQLIDGLEYLHSQGIVHKDIKPGNLLLTTGGTLKISDLGVAEALHPFAADDTCRTSQGSPAFQPPEIANGLDTFSGFKVDIWSAGVTLYNITTGLYPFEGDNIYKLFENIGKGSYAIPGDCGPPLSDLLKGMLEYEPAKRFSIRQIRQHSWFRKKHPPAEAPVPIPPSPDTKDRWRSMTVVPYLEDLHGADEDEDLFDIEDDIIYTQDFTVPGQSPEEEASHNGQRRGLPKAVCMNGTEAAQLSTKSRAEGRAPNPARKACSASSKIRRLSACKQQ [V372S],1.44 ± 0.3
5,MEVVDPQQLGMFTEGELMSVGMDTFIHRIDSTEVIYQPRRKRAKLIGKYLMGDLLGEGSYGKVKEVLDSETLCRRAVKILKKKKLRRIPNGEANVKKEIQLLRRLRHKNVIQLVDVLYNEEKQKMYMVMEYCVCGMQEMLDSVPEKRFPVCQAHGYFCQLIDGLEYLHSQGIVHKDIKPGNLLLTTGGTLKISDLGVAEALHPFAADDTCRTSQGSPAFQPPEIANGLDTFSGFKVDIWSAGVTLYNITTGLYPFEGDNIYKLFENIGKGSYAIPGDCGPPLSDLLKGMLEYEPAKRFSIRQIRQHSWFRKKHPPAEAPVPIPPSPDTKDRWRSMTSVPYLEDLHGADEDEDLFDIEDDIIYTQDFTVPGQVPEEEASHNGQRRGLPKAVCMNGTEAAQLSTKSRAEGRAPNPARKACSASSKIRRLSACKQQ [V337S],0.723 ± 0.17
6,MEVVDPQQLGMFTEGELMSVGMDTFIHRIDSTEVIYQPRRKRAKLIGKYLMGDLLGEGSYGKVKEVLDSETLCRRAVKILKKKKLRRIPNGEANVKKEIQLLRRLRHKNVIQLVDVLYNEEKQKMYMVMEYCVCGMQEMLDSVPEKRFPVCQAHGYFCQLIDGLEYLHSQGIVHKNIKPGNLLLTTGGTLKISDLGVAEALHPFAADDTCRTSQGSPAFQPPEIANGLDTFSGFKVDIWSAGVTLYNITTGLYPFEGDNIYKLFENIGKGSYAIPGDCGPPLSDLLKGMLEYEPAKRFSIRQIRQHSWFRKKHPPAEAPVPIPPSPDTKDRWRSMTVVPYLEDLHGADEDEDLFDIEDDIIYTQDFTVPGQVPEEEASHNGQRRGLPKAVCMNGTEAAQLSTKSRAEGRAPNPARKACSASSKIRRLSACKQQ [D176N],-0.273 ± 0.098
7,MEVVDPQQLGMFTEGELMSVGMDTFIHRIDSTEVIYQPRRKRAKLIGKYLMGDLLGEGSYGKVKEVLDSETLCRRAVKILKKKKLRRIPNGEANVKKEYQLLRRLRHKNVIQLVDVLYNEEKQKMYMVMEYCVCGMQEMLDSVPEKRFPVCQAHGYFCQLIDGLEYLHSQGIVHKDIKPGNLLLTTGGTLKISDLGVAEALHPFAADDTCRTSQGSPAFQPPEIANGLDTFSGFKVDIWSAGVTLYNITTGLYPFEGDNIYKLFENIGKGSYAIPGDCGPPLSDLLKGMLEYEPAKRFSIRQIRQHSWFRKKHPPAEAPVPIPPSPDTKDRWRSMTVVPYLEDLHGADEDEDLFDIEDDIIYTQDFTVPGQVPEEEASHNGQRRGLPKAVCMNGTEAAQLSTKSRAEGRAPNPARKACSASSKIRRLSACKQQ [I99Y],0.0269 ± 0.081

# — the supplement of paper PMC12338614
